Measurements published in patent US20150190466.

Biological target: T1, N-terminus tagged ILDR2
T1 sequence (Q71H61 whole entry, species assumed, looked up): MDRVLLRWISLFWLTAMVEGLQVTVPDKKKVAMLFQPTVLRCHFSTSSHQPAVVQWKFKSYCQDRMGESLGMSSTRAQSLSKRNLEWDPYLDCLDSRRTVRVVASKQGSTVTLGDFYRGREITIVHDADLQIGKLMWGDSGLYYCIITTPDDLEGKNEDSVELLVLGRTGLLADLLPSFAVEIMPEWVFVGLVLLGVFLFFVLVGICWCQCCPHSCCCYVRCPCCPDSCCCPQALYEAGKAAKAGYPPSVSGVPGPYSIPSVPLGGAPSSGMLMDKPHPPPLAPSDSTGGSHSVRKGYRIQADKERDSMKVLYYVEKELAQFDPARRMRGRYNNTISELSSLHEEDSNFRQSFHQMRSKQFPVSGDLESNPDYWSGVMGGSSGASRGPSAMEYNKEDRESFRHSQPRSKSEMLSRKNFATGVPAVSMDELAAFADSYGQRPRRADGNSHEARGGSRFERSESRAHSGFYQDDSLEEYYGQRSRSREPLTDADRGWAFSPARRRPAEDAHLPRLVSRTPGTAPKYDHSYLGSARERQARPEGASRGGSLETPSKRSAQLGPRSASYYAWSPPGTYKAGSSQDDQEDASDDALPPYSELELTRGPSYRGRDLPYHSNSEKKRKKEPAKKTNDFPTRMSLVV

B1: V5-tagged PERK (protein)
chain: VAPARSLLAPASETVFGLGAAAAPTSAARVPAVATAEVTVEDAEALPAAAGEPESRATEPDDDVELRPRGRSLVIISTLDGRIAALDAENDGKKQWDLDVGSGSLVSSSLSKPEVFGNKMIIPSLDGDLFQWDRDRESMEAVPFTVESLLESSYKFGDDVVLVGGKSLITYGLSAYSGKLRYICSALGCRRWDSDEMEEEEDILLLQRTQKTVRAVGPRSGSEKWNFSVGHFELRYIPDMETRAGFIESTFKPGGNKEDSKIISDVEEQEATMLDTVIKVSVADWKVMAFSRKGGRLEWEYQFCTPIASAWLVRDGKVIPISLFDDTSYTASEEALGDEEDIVEAARGATENSVYLGMYRGQLYLQSSVRVSEKFPTSPKALESVNGENAIIPLPTIKWKPLIHSPSRTPVLVGSDEFDKCLSNDKYSHEEYSNGALSILQYPYDNGYYLPYYKRERNKRSTQITVRFLDSPHYSKNIRKKDPILLLHWWKEIFGTILLCIVATTFIVRRLFHPQPHRQRKESETQCQTESKYDSVSADVSDNSWNDMKYSGYVSRYLTDFEPIQCMGRGGFGVVFEAKNKVDDCNYAIKRIRLPNRELAREKVMREVKALAKLEHPGIVRYFNAWLETPPEKWQEEMDEIWLKDESTDWPLSSPSPMDAPSVKIRRMDPFSTKEQIEVIAPSPERSRSFSVGISCGQTSSSESQFSPLEFSGTDCGDNSDSADAAYNLQDSCLTDCEDVEDGTVDGNDEGHSFELCPSEASPYTRSREGTSSSIVFEDSGCGNASSKEEPRGNRLHDGNHYVNKLTDLKCSSSRSSSEATTLSTSPTRPTTLSLDFTKNTVGQLQPSSPKVYLYIQMQLCRKENLKDWMNRRCSLEDREHGVCLHIFLQIAEAVEFLHSKGLMHRDLKPSNIFFTMDDVVKVGDFGLVTAMDQDEEEQTVLTPMPAYATHTGQVGTKLYMSPEQIHGNNYSHKVDIFSLGLILFELLYPFSTQMERVRILTDVRNLKFPLLFTQKYPQEHMMVQDMLSPSPTERPEATDIIENAIFENLEFPGKTVLRQRSRSMSSSGTKHSRQPSCSYSPLPGN
- cleavage of ILDR2 (western blot of ILDR2 fragments after co-transfection): N-terminus-tagged ILDR2 was also decreased by PERK, but cleaved ILDR2 was not detected
